Data: publication doi:10.1101/390104 (bioRxiv, 2018)

Columns and labels:
MalE [1] = target: T1, MalE (E. coli, UniProt P0AEX9 27-396 = MBP); test: ITC
NMR = target: the molecule itself; test: NMR
MalE [2] = target: T1, MalE; test: 19F NMR
MalE [3] = target: T1, MalE; test: NMR

Row | binding result (MalE [2]) | Binder | further results
1 | – | wild type HdeA (natural protein, E. coli, UniProt P0AES9 22-110, looked up) ADAQKAADNKKPVNSWTCEDFLAVDESFQPTAVGFAEALNNKDKPEDAVLDVQGIATVTPAIVQACTQDKQANFKDKVKGEWDKIKKDM | stoichiometry N (MalE [1]): ~0.5; binding result (NMR): binds
2 | binds | HdeA mutant with 19F probe incorporated at site 63 (natural protein, 5-fluorotryptophan at 63) ADAQKAADNKKPVNSFTCEDFLAVDESFQPTAVGFAEALNNKDKPEDAVLDVQGIATVTPAIWQACTQDKQANFKDKVKGEFDKIKKDM | –
3 | binds | HdeA mutant with 19F probe incorporated at site 28 (natural protein, 5-fluorotryptophan at 28) ADAQKAADNKKPVNSFTCEDFLAVDESWQPTAVGFAEALNNKDKPEDAVLDVQGIATVTPAIVQACTQDKQANFKDKVKGEFDKIKKDM | –
4 | – | HdeA-82-fluoro (natural protein, 5-fluorotryptophan at 82) ADAQKAADNKKPVNSFTCEDFLAVDESFQPTAVGFAEALNNKDKPEDAVLDVQGIATVTPAIVQACTQDKQANFKDKVKGEWDKIKKDM | binding result (MalE [3]): binds
5 | binds | HdeA mutant with 19F probe incorporated at site 7 (natural protein, 5-fluorotryptophan at 7) ADAQKAWDNKKPVNSFTCEDFLAVDESFQPTAVGFAEALNNKDKPEDAVLDVQGIATVTPAIVQACTQDKQANFKDKVKGEFDKIKKDM | –
6 | – | HdeA-F28W mutant (natural protein) ADAQKAADNKKPVNSWTCEDFLAVDESWQPTAVGFAEALNNKDKPEDAVLDVQGIATVTPAIVQACTQDKQANFKDKVKGEWDKIKKDM | binding result (MalE [3]): binds
7 | – | HdeA-16-fluoro (natural protein, 5-fluorotryptophan at 16) ADAQKAADNKKPVNSWTCEDFLAVDESFQPTAVGFAEALNNKDKPEDAVLDVQGIATVTPAIVQACTQDKQANFKDKVKGEFDKIKKDM | binding result (MalE [3]): binds
8 | binds | HdeA mutant with 19F probe incorporated at site 49 (natural protein, 5-fluorotryptophan at 49) ADAQKAADNKKPVNSFTCEDFLAVDESFQPTAVGFAEALNNKDKPEDAWLDVQGIATVTPAIVQACTQDKQANFKDKVKGEFDKIKKDM | –
9 | binds | HdeA mutant with 19F probe incorporated at site 55 (natural protein, 5-fluorotryptophan at 55) ADAQKAADNKKPVNSFTCEDFLAVDESFQPTAVGFAEALNNKDKPEDAVLDVQGWATVTPAIVQACTQDKQANFKDKVKGEFDKIKKDM | –
10 | binds | HdeA mutant with 19F probe incorporated at site 78 (natural protein, 5-fluorotryptophan at 78) ADAQKAADNKKPVNSFTCEDFLAVDESFQPTAVGFAEALNNKDKPEDAVLDVQGIATVTPAIVQACTQDKQANFKDKWKGEFDKIKKDM | –
11 | binds | HdeA mutant with 19F probe incorporated at site 24 (natural protein, 5-fluorotryptophan at 24) ADAQKAADNKKPVNSFTCEDFLAWDESFQPTAVGFAEALNNKDKPEDAVLDVQGIATVTPAIVQACTQDKQANFKDKVKGEFDKIKKDM | –
12 | binds | HdeA mutant with 19F probe incorporated at site 35 (natural protein, 5-fluorotryptophan at 35) ADAQKAADNKKPVNSFTCEDFLAVDESFQPTAVGWAEALNNKDKPEDAVLDVQGIATVTPAIVQACTQDKQANFKDKVKGEFDKIKKDM | –
